Molecular target: HLA-A*02:01 (Homo sapiens, UniProt P04439, D140Y/D185E/D98H/E176V/E277Q/G131W/G231S/I119V/I121R/I166T/I218V/L300P/L318F/N151K/N90K/P208A/P217A/Q86G/Q94H/R138H/R169H/T345S)
Assay: MHC binding assay (UV-ligand exchange, ELISA, peptide exchange yield)
Settings: binding of HLA-class I restricted peptides to HLA-A*02:01
Description: Candidate peptides for T cell based therapies according to the present invention were further tested for their MHC binding capacity (affinity). The individual peptide-MHC complexes were produced by UV-ligand exchange, where a UV-sensitive peptide is cleaved upon UV-irradiation, and exchanged with the peptide of interest as analyzed. Only peptide candidates that can effectively bind and stabilize the peptide-receptive MHC molecules prevent dissociation of the MHC complexes. To determine the yield of the exchange reaction, an ELISA was performed based on the detection of the light chain ([…]) of stabilized MHC complexes. The assay was performed as generally described in Rodenko et al. (Rodenko et al., 2006).
96 well MAXISorp plates (NUNC) were coated over night with 2-ug/ml streptavidin in PBS at room temperature, washed 4× and blocked for 1 h at 37° C. in 2% BSA containing blocking buffer. […] Peptide-MHC monomers of the UV-exchange reaction were diluted 100 fold in blocking buffer. Samples were incubated for 1 h at 37° C., washed four times, incubated with 2-ug/ml HRP conjugated anti-β2m for 1 h at 37° C., washed again and detected with TMB solution that is stopped with […]. Absorption was measured at 450 nm. Candidate peptides that show a high exchange yield (preferably higher than 50%, most preferred higher than 75%) are generally preferred for a generation and production of antibodies or fragments thereof, and/or T cell receptors or fragments thereof, as they show sufficient avidity to the MHC molecules and prevent dissociation of the MHC complexes.

| Substance | Peptide exchange (MHC class I binding score, peptide exchange yield) |
| --- | --- |
| 140 (YMDAPKAAL; listed as Homo sapiens) [compound 140] | ″++″ (≥20% = ++) |
| 142 (FLFATPVFI; listed as Homo sapiens) [compound 142] | ″+++″ (≥50% = +++) |
| 144 (YIMEPSIFNTL; listed as Homo sapiens) [compound 144] | ″+++″ (≥50% = +++) |
| 145 (FLATSGTLAGI; listed as Homo sapiens) [compound 145] | ″++″ (≥20% = ++) |
| 146 (SLATAGDGLIEL; listed as Homo sapiens) [compound 146] | ″++″ (≥20% = ++) |
| 147 (SLLEAVSFL; listed as Homo sapiens) [compound 147] | ″+++″ (≥50% = +++) |
| 148 (ALNPEIVSV; listed as Homo sapiens) [compound 148] | ″++″ (≥20% = ++) |
| 149 (NLLELFVQL; listed as Homo sapiens) [compound 149] | ″+++″ (≥50% = +++) |
| 151 (KILQQLVTL; listed as Homo sapiens) [compound 151] | ″+++″ (≥50% = +++) |
| 152 (ILFEDIFDV; listed as Homo sapiens) [compound 152] | ″+++″ (≥50% = +++) |
| 153 (FLIANVLYL; listed as Homo sapiens) [compound 153] | ″+″ (≥10% = +) |
| 154 (ALDDGTPAL; listed as Homo sapiens) [compound 154] | ″++″ (≥20% = ++) |
| 155 (RVANLHFPSV; listed as Homo sapiens) [compound 155] | ″+++″ (≥50% = +++) |
| 157 (SLNDEVPEV; listed as Homo sapiens) [compound 157] | ″++″ (≥20% = ++) |
| 158 (KLFDVDEDGYI; listed as Homo sapiens) [compound 158] | ″+++″ (≥50% = +++) |
| 159 (GLVGNPLPSV; listed as Homo sapiens) [compound 159] | ″++++″ (≥75% = ++++) |
| 160 (FLFDEEIEQI; listed as Homo sapiens) [compound 160] | ″+++″ (≥50% = +++) |
| 161 (ALLEGVNTV; listed as Homo sapiens) [compound 161] | ″+++″ (≥50% = +++) |
| 162 (YQQAQVPSV; listed as Homo sapiens) [compound 162] | ″+++″ (≥50% = +++) |
| 163 (ALDEMGDLLQL; listed as Homo sapiens) [compound 163] | ″+++″ (≥50% = +++) |
| 164 (ALLPQPKNLTV; listed as Homo sapiens) [compound 164] | ″+++″ (≥50% = +++) |
| 165 (SLLDEIRAV; listed as Homo sapiens) [compound 165] | ″+++″ (≥50% = +++) |
| 166 (YLNHLEPPV; listed as Homo sapiens) [compound 166] | ″+++″ (≥50% = +++) |
| 167 (KVLEVTEEFGV; listed as Homo sapiens) [compound 167] | ″+++″ (≥50% = +++) |
| 168 (KILDADIQL; listed as Homo sapiens) [compound 168] | ″++++″ (≥75% = ++++) |
| 169 (NLPEYLPFV; listed as Homo sapiens) [compound 169] | ″+++″ (≥50% = +++) |
| 170 (RLQETLSAA; listed as Homo sapiens) [compound 170] | ″+++″ (≥50% = +++) |

From patent publication US10227388B2, “Peptides and combination of peptides for use in immunotherapy against non-small cell lung cancer and other cancers” (immatics biotechnologies GmbH, priority 2015, dated 2019)
